Experiment: soluble on expression in E. coli; label from the status in PepcDB or PDB records

| Sequence | soluble on expression in E. coli |
| --- | --- |
| MIIPEYGRTLTPEEWRPVVDEMLEATHIIFTTHENSDGDGLGSQVALALALKALGKEVAIFNPTEVPPNYLFLKELHEINLFRDRDEESMQEFFLADLLVVLDANLHDRIGRLWPHVEFARQMSRLKVLCIDHHLEPEDFADITVCETYASSTGELVCDLVTALELRTGQQLFTPEVASALYAAIMTDTGSFRFPKTTPYTYRLAGMLVEKGADPELVYDRIYNALTPEALKLLGLSLSNIKIIENGLISWLFITQEMLEQTGSKLFDTDLIIRYLLSVPTVKVAVLLVEMQDGRCKVSFRSRGKIYVNQLAKHYGGGGHMNAAGCLLRMSAEKAQLVILEDVRKFTLEQVDS | soluble |
| MASGDLVHYVITVMLHEDTLTEINELNNYLTRDGFLLTMTDDEGNIHELGTNTFGLISTQSEEEIRELVSGLTQSATGKDPEITITTWEEWNSNRK | not soluble |
| MGSDKIHHHHHHVTVSAFVLLLCRRAIVTLDSTPAFSTDPELICFSSRFQDEMEMYAPAEVVAHYLDRHEEWFRRCAEPMATTSIGKDAYAIVLGRYGSLGFEVEPQIGLELLPADQGVYRICTVPVPGYESQGYQVDFQASLSLDRLTHETEAPVTEATAVAWDLLLTVGIRLPRFIHVLPQKLVHSTGDHLLRQIVRQTSRRLTHRVQEDFHQQLNLPLPPRRHARF | not soluble |
| MAHHHHHHMKAKGFHHSTPNFNTAEFTDAADPSDLANDIVTESAVAVDFARDIYGPWLVMTDDLQGELFVDHDGFVYYRPANGLGYGIGKLQVLDAGATGTAFTCQLESYSYQPTNTVVPQYGLTFDITGMVKRVTAKSSDYKTFSLVGVWRRSNRNKGAPALLPSQRSSSDAAVEGASAALSPESLDNQGALDGPGEKTSGQFNAAKLSPWDPSTAARPFAPNAELQSVFTQVFPERLRAESHVQRAEASRESPAARHLAGCAGKPSLMHLDLEQYATGKIPGIYYIPDYISVAEEAQILTFIHGTPEELKSKLTKRTCQEWGCTMCESCQKSFVSDANMPQWVQEFIDMQVYDGLFTPTTFPNSVRIHEYHQGDGIGPHCDGPIYVPMVTVLSLASSCLMSFYPKQPLYENHPMDHYNDTFKFGEGDIGRRVPLQSVVMEPRSLLIFSGEGYYHYPHGISDKAEEVLTPEVVGEVVNRRFLRDPHVQSIPRTYRASITTRNLMTRCSHQPARAEYAMKRAWYLYNHLPVPSELFTPAPQLPQQQQQPAGVSAGGSSGSRESSDASATRSPQKRVESFFPACAPPGTVAVDTELREAIYEMRARQEDLRNNVEELKQLVALSIPVQTTFQTETATILNHLSSSVLQLESKVDDLLEEVESAKRKSSTDT | not soluble |
| MLDIKFLRTNFEEVKAKLQHRGEDLTDFGRFEELDTRRRELLVQTEELKSKRNEVSQQISVLKREKKDAEALILEMREVGEKVKDLDNELRTVEEDLERLMLSIPNIPHESAPVGETEDDNVVARTWGEVKEFAFEPKPHWDLATDLGILDFERAGKVTGSRFVFYKGAGARLERALISFMLDLHTDEHGYEEVLPPYMVNRASMTGTGQLPKFEEDAFRIESEDYFLIPTAEVPVTNMHRDEILNKEQLPIRYAAFSSCFRSEAGSAGRDTRGLIRQHQFNKVELVKFVKPEDSYEELEKLTNDAERVLQLLELPYRVMSMCTGDLGFTAAKKYDIEVWIPSYGTYREISSCSNFEAFQARRANIRFRREPNGKPEHVHTLNGSGLAIGRTVAAILENYQQEDGTIIIPEVLRPYMGGKTVIK | soluble |
| MNTMKNVTKRSFQTIAIVGKPRHDNALETHLAVYNWLKDRHYSVLVEEKIAEQLQLPNGKRIEEIGQIADLVIVIGGDGNMLGMARSLAKYQVPLIGINRGNLGFLTDIAPQSAFEQLYSCLEKGEFIIEQRFLLEAQIEQNGKIISANNALNEVAIHPTQVARIIEFEVYIDSKFAFSQRSDGLIIATPTGSTAYSLSAGGPILTPNMNAIALVPMHPHALSSRPLVIDGDSHISLRFAQYNQPNLEISCDGQDDLPFTPEDRIIVRKSPDILHLLHLKDYNYFTVLGSKLGWSSKLF | soluble |
| MDIRKEFEHLQYFFDSYYNQTFYNAQLEEQFLRFLADEPEWVVRALKLEVEKLERIHHRRDTETWAKIEELVHENSMRYFSFEDGKTFIKVASLLLKDID | not soluble |
| MGAEGRLYWDEGEGEGPYRLDRFRLLPAEGGFRLLWQGKGELPWPWARVRLRLFGKRLLRAHVEGEAHAAEEGGVLLPPFREALLEVEGLEHHHHHH | not soluble |
| MDAIITGESERIGLSVIDNNDVEHLIETNESGEITYHEQDGYPDDSSKRTDEGNEYVNQARKYAKYYVYLKRGYDTVSAPENPVRIDAVRQAIAQMDLETFETHFGDLYQQFSSETDGSAEPVYDVPPQATTPPIYAQNVYLGIDPLETDLGDELAAKHDLDITAESAADVAIADLSTEEIKQWGEFTGEFATRAIEEQIDLSDAVYIDNTSQLYVKHPEGTDLVAADDHLEPTSREPDTVIELLPIELESLEYFQSFMDHYLRCQIRDVFIEMGVVPPEEFRVLGLGQFMAAHCYSYIDFYPEFHNPESGAFTQQTSLF | not soluble |
| GMARKRLIIEMGMGIDQHGQEPTIAASRAVRNAIAHNALPGVWEVAGLSHPNEMIIEVQVAVPYPEQVREEEVLAVLPFGRKTLTVESGGMIVQGRAIPELNDKNDEMLIAIAAVTVLIENE | soluble |
| MSLSFDFSPDFNPLAARMRPASVEEYIGQSHLLGEGKPLRQALLAGKVHSMLLWGPPGTGKTTLAELVARYANAHVERISAVTSGVKEIRAAIEQAKNVAQSRGQRTLLFVDEVHRFNKSQQDAFLPFIEDGTVIFIGATTENPSFEVNNALLSRCRVYLIKRLEDDAIGQILAQANSDEARGLGKRGLLLKAELKSAIARLCDGDARKALNLLELMSDLLPDGGEYNLELLSEVAGHQAAGYDKNGDQYYDLISAVHKSIRGSAPDAALYWFCRILEGGGDPLYVARRLLAIASEDIGNADPNAMTVALNAWDCFHRVGPAEGERAIAQAVIYLASAPKSNAVYTAFKAARVLARETGNAPVPNHLRNAPTKLMSELGVGEGYRYAHDEDGAFAAGENYFPEVLQHSRIYQPTARGFEKRIRDKLAHLDALNQQSEGHHHHHH | soluble |
| SLSWLTTHFVVTNRRVMFRHGVLTRSGIDIPLARINSVEFRDRIFERIFRTGTLIIESASQDPLEFYNIPRLREVHALLYHEVFDTLGSDESPS | soluble |
| MSLKIILSIFLAFFLSACGVKLSLPKEVDLTQEQMKDLNLTYDWYRSYDNAKLNEFLNFVLLNNSDINIARKTLLSALARADLIDYDLYPTLSGNLGFGADKDLNSGKQSKNFNNSLNLSYELDIYGKLRDSASASEFSAKASAYDLENLKISMINTALNDVFELAYFNDVDKLLRAYLSNLEQMKELYNYKYKLGKIEELDLLNIEQSLLRAKQNLLSNDQNRNLLIKNLQDLLARQEGFAYIEYFKTLSEGHHHHHH | soluble |
| MSLTNDERILSWNETPSKPRYTPPPGAIDAHCHVFGPMAQFPFSPKAKYLPRDAGPDMLFALRDHLGFARNVIVQASCHGTDNAATLDAIARAQGKARGIAVVDPAIDEAELAALHEGGMRGIRFNFLKRLVDDAPKDKFLEVAGRLPAGWHVVIYFEADILEELRPFMDAIPVPIVIDHMGRPDVRQGPDGADMKAFRRLLDSREDIWFKATCPDRLDPAGPPWDDFARSVAPLVADYADRVIWGTDWPHPNMQDAIPDDGLVVDMIPRIAPTPELQHKMLVTNPMRLYWSEEMEGHHHHHH | soluble |
| MSGLKLVTVLLLALCTATEAAKCRGKYMEMRGREGFVTRGGCRGLDSQIQEEYWTTVGFDGDLRDGRTTDDFLVFPANENNGHTQTNSFVGYWDMKESVNPITRSKYGENVHYEAFGHAFIKPDGKVCGWFVGSHKEVVEVCGGFRVLSRSRFNPHQPIPFEWVQGEQYRNRDVLGFHHHKIAKYEANADEVLFGDADVKGKKFNGVSINNEQRVEVDTPETFHRKVWLLRKKSTQPPSDVRAAYHHPRKLL | not soluble |
| MCRLLGFATAGSNTNLNGVLGMQNVRDFRNLSEIHNDGWGAALITVPDESPYRRDGGAPTPETGTAIYKNTIAARHDPIFDELANTPARGGLWHLRLASSNLPLILENQQPFYANGLSFIHNGDISDDQGRNIITNRAFPVDPSIVQSTGGRSDSAIFFAVILQYIGFGFALDEAVAQAVRELRKSYPKSSYNCMIQSQDQFIALCAAGREVTSKRIVEIYDQYGRGEQARDYRVLRYRALGGNDDQSKGVVVASSGFDQRAEDGWTRLENDQMIVASNRTGEFRVRSI | soluble |
| MSLDLSLNNLYSISTVELIQAFANTPASVTSLNLSGNSLGFKNSDELVQILAAIPANVTSLNLSGNFLSYKSSDELVKTLAAIPFTITVLDLGWNDFSSKSSSEFKQAFSNLPASITSLNLRGNDLGIKSSDELIQILAAIPANVNSLNLRGNNLASKNCAELAKFLASIPASVTSLDLSANLLGLKLEHHHHHH | not soluble |
| MISDRPGLPGEDMRLALLSFENYLLANRNTEKPVLHIALSPAPEDKLTDEQLAELAQNYMQKMGYGDQPYIAYKHGDTHNTHIHIVSVCVDEEGRKINDSFEHRRSMTACRELEIDFGLRNGADMEERNQKAEMKKVDATQGDVRHQIGNTLKAVLESYRFQTFGEYSALLSTLNIEAKQVRGEFKGEPYTGIIYSATDDSGKVVSPPFKSSRFGKRFGNERLEKRMLSHTRDFKDGKWAPTIHAQVVYAMRHARSREELAGLLKKARIDAVFRENEQGRIYGVTFIDHNRREVFNGSRMGKEFSANIYNELFKWWDGIPATERSAHTGTELWQHHSHKAESGSPLEQAASIFSMETNPVDYGEEALARRMKKRRKAKRKSRGI | not soluble |
| MGSDKIHHHHHHMVQNTFSDFDVSGFWDDSAYSIEEYVEETPTDALIDSIEQELGYKLPASYIELMKQHNGGTPVNCCFPVTEETSGTEYHVEISGIMGIGRSKTYSLGGSFGSRFMIDEWGYPDTGIYVCTCPSAGHEMILLDYSICGPKGEPQVFYVDQEREYQKTFLAKDFETFIRGLVHADVYDTSAQDLISTLETFRTGNFSEVLQAYIKKDLSVNFDRVLRNLFTELTTEKGYFALHADELSYLSYDIQFYLLSINRKIKSKEDFVKHYLPMVAMSDAGITTGGYANFFEDWFDEKIKSKEITKGLLSGFLFTEIYKQKLFERIKQYDK | not soluble |
| MGSDKIHHHHHHMIMRILVVGDFLKTSGMTRYIFNVIGRIHASDFQVDALSISGKDECKGQVKKMGWGFYCVQAANNNLLRHLVQSFIFFKKHAKDYDVIHFNESALWNFLPIIFAHLFGAKRIILNSHNTYFATEGSKKLYVVLEIMHRIGKWLVAHVVAQNIAVSEEAARWMFTRKTINRHEYKIIVNGIELEKFAYNKEQRFKIRKSLKINEDTFLFGNVGIFNARKNQLRLLEIFNELVKRNLDVKLVLVGDGPIKEAIVAKISELRLADKVVMTGLINNTNEYYQAMDGVIMPSLNEGLSTVLLEAQTSGLQFILSEGLPLGNHIDLLVHEVPLSESNRVWADVVEHNMNREKREVFGSIMQKKGFDVELSAKELYQTYLEER | not soluble |
| MTLGLKDLYYAVCTEADGAESYGTPKKMAEAMSADLSVKTADGSLYADDTLSESVTEFASGTLKLGIKDLTPEVLAELLGQAVDKNSVVWAGKEDEPPYVAVGFRAKKTGGKYRYVWLLKAKFKVPSEKYETKGESIKFNTPDIEASFTTRKKDNLWKADFVGTEESAAAKTWFTAVPEKAAAMESVLEHHHHHH | soluble |

From the DeepSol protein solubility set
